Key:
[1] = MHET released, HPLC; higher = more MHET released; extreme values may be limits of the assay; settings: 24 h
Protocol: (§1)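 Purified PET hydrolases, 2.5 ug enzyme on 3.5 mg amorphous PET film (aFilm) or crystalline PET powder (cryPow) in 0.5 mL of 50 mM buffer (NaCitrate pH 4.5/5.5, NaPhosphate 6.5/7.5, glycine 8.5/9.5) at 60 or 70 C with shaking for 24 h. Total aromatic product by UV-Vis (260/280 nm, blank-subtracted, normalised per mg enzyme) and individual TPA, MHET, BHET concentrations by UHPLC-DAD at 240 nm; duplicate reactions.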

[2] = terephthalic acid (TPA) released, HPLC; higher = more TPA released; extreme values may be limits of the assay; settings: 24 h
Protocol: as §1

[3] = PET hydrolysis product formed (TPA+MHET+BHET, UV-Vis) per mg enzyme (mmol/mg enzyme); higher = more PET depolymerisation activity; extreme values may be limits of the assay; settings: 2 h
Protocol: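 Purified PET hydrolases (His-SUMO cleaved, E. coli C41(DE3) small-scale expression), 2.5 ug enzyme on 3.5 mg amorphous PET film (aFilm) or crystalline PET powder (cryPow) in 0.5 mL of 50 mM buffer (NaCitrate pH 4.5/5.5, NaPhosphate 6.5/7.5, glycine 8.5/9.5) at 60 or 70 C with shaking for 2 h. Soluble aromatic products (TPA+MHET+BHET) were quantified by UV-Vis at 260/280 nm, blank-subtracted against the no-enzyme control, and normalised per mg enzyme; duplicate reactions.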

[4] = as above; settings: 24 h
Protocol: as §1

SNPYQRGPNPTRSALTATGPFSVATYTVSRLLVSGFGGGVIYYPTGTSLTFGGIAMSPGYTADASSLAWLGRRLASHGFVVLVINTNSRFDGPDSRARQLSAALNYLRTSSPSAVRARLDANRLAVAGHSMGGGGTLRIAEQNPSLKAAVPLTPWHPDKTFNTSVPVLIVGAQADTVAPVSQHAIPFYQNLPSTTPKVYVELCNASHIAPNSPNAAISVYTISWMKLWVDNDTRYRQFLCNVNDPALCDFRTNNRHCQ [LCC-ICCG I6M]
Settings | MHET released, [1] [mM] | PET hydrolysis product formed, [3] | PET hydrolysis product formed, [4] | terephthalic acid, [2] [mM]
PET substrate: aFilm, 60 °C, pH 4.5 | 0.067 | 0 | 0.0326 | 0.104
PET substrate: aFilm, 60 °C, pH 5.5 | 0.339 | 0.0198 | 0.147 | 0.39
PET substrate: aFilm, 60 °C, pH 6.5 | 0.534 | 0.0378 | 0.223 | 0.499
PET substrate: aFilm, 60 °C, pH 7.5 | 3.6 | 0.0723 | 1.32 | 2.85
PET substrate: aFilm, 60 °C, pH 8.5 | 0.333 | 0.0336 | 0.169 | 0.541
PET substrate: aFilm, 60 °C, pH 9.5 | 1.14 | 0.0585 | 0.577 | 1.37
PET substrate: aFilm, 70 °C, pH 4.5 | 0 | 0 | 0 | 0
PET substrate: aFilm, 70 °C, pH 5.5 | 0.236 | 0.0242 | 0.105 | 0.275
PET substrate: aFilm, 70 °C, pH 6.5 | 0.211 | 0.057 | 0.0963 | 0.246
PET substrate: aFilm, 70 °C, pH 7.5 | 1.51 | 0.149 | 0.788 | 1.37
PET substrate: aFilm, 70 °C, pH 8.5 | 0.164 | 0.021 | 0.0775 | 0.209
PET substrate: aFilm, 70 °C, pH 9.5 | 0.409 | 0.0849 | 0.402 | 1.33
PET substrate: cryPow, 60 °C, pH 4.5 | 0.0591 | 0.0118 | 0.01995 | 0.0328
PET substrate: cryPow, 60 °C, pH 5.5 | 0.178 | 0.031 | 0.0583 | 0.102
PET substrate: cryPow, 60 °C, pH 6.5 | 0.22 | 0.0457 | 0.0726 | 0.105
PET substrate: cryPow, 60 °C, pH 7.5 | 0.206 | 0.035 | 0.0808 | 0.116
PET substrate: cryPow, 60 °C, pH 8.5 | 0.113 | 0.0317 | 0.0461 | 0.0874
PET substrate: cryPow, 60 °C, pH 9.5 | 0.0594 | 0.0174 | 0.0598 | 0.263
PET substrate: cryPow, 70 °C, pH 4.5 | 0 | 0 | 0 | 0
PET substrate: cryPow, 70 °C, pH 5.5 | 0.0931 | 0.0164 | 0.0302 | 0.0482
PET substrate: cryPow, 70 °C, pH 6.5 | 0.136 | 0.0289 | 0.05 | 0.0691
PET substrate: cryPow, 70 °C, pH 7.5 | 0.275 | 0.0329 | 0.122 | 0.288
PET substrate: cryPow, 70 °C, pH 8.5 | 0.13 | 0.0203 | 0.0495 | 0.1
PET substrate: cryPow, 70 °C, pH 9.5 | 0.0223 | 0.0239 | 0.0468 | 0.25

Reference: the supplement of paper PMC11196671
